Target: T1, mouse insulin receptor (mouse, UniProt P15208 28-1372)
T1 construct: whole, on cells; also called muINSR; mINSR
Experiment: FACS on mouse INSR; conditions not given on the sheet

Binder | binding result
Ab032 (antibody, V domains shown, also called XPA.015.093) VH: EVQLLESGGGLVQPGGSLRLSCAASGFTFSNYAMGWVRQAPGKGLEWVSSISGSGGTTYYADSVKGRFTISRDNSKNTLYLQMNSLRAEDTAVYYCARHKGLQPLDYWGQGTLVTVSS VL: QSVLTQPPSASGTPGQRVTISCSGSISNIGSNYVSWYQQLPGTAPKLLIYGNSNRPSGVPDRFSGSKSGTSASLAISGLRSEDEADYYCAAWDDSLSPHVVFGGGTKLTVLG | binds
Ab009 (antibody, V domains shown, also called XPA.015.075) VH: EVQLLESGGGLVQPWGSLRLSCAASGFTFSNYAMGWVRQAPGKGLEWVSSISGSGGTTYYADSVKGRFTISRDNSKNTPYLQMNSLRAEDTAVYYCARHKGLQPLDYWGQGTLVTVSS VL: QSVLTQPPSASGTPGQRVTISCSGSISNIGSNYVSWYQQLPGTAPKLLIYGNSNRPSGVPDRFSGSKSGTSASLAISGLRSEDEADYYCAAWDDSLSPHVVFGGGTKLTVLG | binds
Ab011 (antibody, V domains shown, also called XPA.015.085) VH: EVQLLESGGGLVQPGGSLRLSCAASGFTFSNYAMGWVRQAPGKGLEWVSSISGSGGTTYYADSVKGRFTISRDNSKNTLYLQMNSLRAEDTAVYYCARHKGLQPLDYWGQGTLVTVSF VL: QSVLTQPPSASGTPGQRVTISCSGSISNIGSNYVSWYQQLPGTAPKLLIYGNSNRPSGVPDRFSGSKSGTSASLAISGLRSEDEADYYCAAWDDSLSPHVVFGGGTKLTVLG | binds
Ab036 (antibody, V domains shown, also called XPA.015.047) VH: EVQLLESGGGLVQPGGSLRLSCAASGFTFSNYAMGWVRQAPGKGLEWVSSISGSGGTTYYADSVKGRFTISRDNSKNTLYLQMNSLRAEDTAVYYCARHKGLQPLDYWGQGTLVTVSS VL: QSVLTQPPSASGTPGQRVTISCSGSSSNIGGNSVHWYQQLPGTAPKLLIYGNSNRPSGVPDRFSGSKSGTSASLAISGLRSEDEADYYCAAWDDSLSPHVVFGGGTKLTVLG | binds
Ab017 (antibody, V domains shown, also called XPA.015.017) VH: EVQLLESGGGLVQPGGSLRLSCAASGFTFSSYSMNWVRQAPGKGLEWVSVIYSGDSTYYADSVKGRFTISRDNSKNTLYLQMNSLRAEDTAVYYCARQVRDGDYGDWFDPWGQGTLVTVSS VL: QSVLTQPPSASGTPGQRVTISCTGSSSNIGAGYDVHWYQQLPGTAPKLLIYGNSNRPSGVPDRFSGSKSGTSASLAISGLRSEDEADYYCAAWDDSLSGWVFGGGTKLTVLG | binds
Ab030 (antibody, V domains shown, also called XPA.015.036) VH: EVQLLESGGGLVQPGGSLRLSCAASGFTFSSYSMNWVRQAPGKGLEWVSAISGSGGSTYYADSVKGRFTISRDNSKNTLYLQMNSLRAEDTAVYYCARDSWELLGYDAFDIWGQGTLVTVSS VL: QSVLTQPPSASGTPGQRVTISCTGSSSNIGAGYDVHWYQQLPGTAPKLLIYDNNKRPSGVPDRFSGSKSGTSASLAISGLRSEDEADYYCASWDDSHLHVLFGGGTKLTVLG | binds
Ab018 (antibody, V domains shown, also called XPA.015.139) VH: EVQLLESGGGLVQPGGSLRLSCAASGFTFSSYWMSWVRQAPGKGLEWVSGISGSGGYIHYADSVKGRFTISRDDSKNTLYLQMNSLRAEDTAVYYCAREGSGWLVDQWGQGTLVTVSS VL: not shown | binds
Ab014 (antibody, V domains shown, also called XPA.015.158) VH: EVQLLESGGGLVQPGGSLRLSCAASGFTFSNAWMSWVRQAPGKGLEWVSAISGSGGSTYYADSVKGRFTISRDNSKNTLYLQMNSLRAEDTAVYYCAAPTVPYYYYGMDVWGQGTLVTVSS VL: QSVLTQPPSASGTPGQRVTISCSGCSSNIGNNAVNWYQQLPGTAPKLLIYRSDQRLAGVPDRFSGSKSGTSASLAISGLRSEDEADYYCQSYDSSLIGHWVFGGGTKLTVLG | binds
Ab006 (antibody, V domains shown, also called XPA.015.013) VH: EVQLLESGGGLVQPGGSLRLSCAASGFTFSNYAMGWVRQAPGKGLEWVSSISGSGGTTYYADSVKGRFTISRDNSKNTLYLQMNSLRAEDTAVYYCARHKGLQPLDYWGQGTLVTVSS VL: QSVLTQPPSASGTPGQRVTISCSGSISNIGSNYVSWYQQLPGTAPKLLIYGNSNRPSGVPDRFSGSKSGTSASLAISGLRSEDEADYYCAAWDDSLSPHVVFGGGTKLTVLG | binds

From patent US20160009800A1 (XOMA US, published 2016)
